Data taken from the nanobody polyreactivity screen of Harvey et al. (2022).

Assay: yeast display, Sf9 membrane polyspecificity reagent, FACS + sequencing; frameworks hold sequencing errors
Outline: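 Galactose-induced (36–48 hours) yeast carrying a synthetic nanobody display library were exposed to 10% biotinylated, detergent-solubilized Sf9 membrane reagent at 4 °C for 1 hour. FACS followed streptavidin microbead enrichment, using low and high (top ~1%) gates for expression (anti-HA) and reagent binding (streptavidin). Colony PCR, MiSeq 2 × 250 sequencing and CDR-length filtering followed. Labels for polyreactivity reflect the gate of origin.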

Row | Sequence | polyreactivity (PSR sort gate)
1 | QVQLVESGGGLVQAGCSLRITCAASGYTFYDYAMGWYRQAPRKERELVAAISSSGGSTYYAHSVKGRFTISRDTAKNTVYLQMISLKPEDTAVYYCDVRARRWRYNYWGQGTQVTVSS | high polyreactivity
2 | QVQLVESGGGLVQAGGSLRLSCAASGLTFTSYAMGWYRQAPGKERELVAAIDWSGGRTYYADSVKGRFTISRDNAKNTVYLQMNSLKPEDTAVYYCAAYSRNRALRFNYWGQGTQVTVSS | high polyreactivity
3 | QVQLEESGGGLVQAGGSLRLSCAASGSIFYSNAMGWYRQAPGKERELVATIRSGGTTYYADSVKGRFTISRDNAKNTVYLQMNSLKPEDTAVYYCAKRYGVKYWGQGTQVTVES | high polyreactivity
4 | QVQLVESGGGLVQAGGSLRLSCAASGSTFRYYAMGWYRQAPGKERELVAAITQSGGITYYADSVKGRFTISRDNANNTVYLQMNSLKPEDTAVYFCAKRYYVDYDYWGQGTQVTVSS | low polyreactivity
5 | QVQLVESGGGLVQAGGSLRLSCAASGFTFGSYAMGWYRQAPGKERELVAVITRSGRTNYADSVKGRFTISRDNAKNTVYLQMNSLKPEDTAVYYCNADDVDDEVSPDLTEMDYWGQGTQVTVSS | low polyreactivity
6 | QVQLVESGVGLVQAGGSLRLSCAASGFTFCPYDKGWYRQAPGKERELVAVIIGGDSTNYADSVKGRFTISRDNAKNTVYLLMNSLKPEDTAVYYCASDYIDRVGWMDYWGQGTQVTVSS | low polyreactivity
7 | QVQLVESGGGLVQAGGSLRLSCAASGRTFIWNAMGWYRQAPGKERELVADISIRGGSTNYADSVKGRFTISRDNAKNTVYFQMNSLKPEDTAVYYCAAEYYDSGNDYWGQGTQVTVSS | low polyreactivity
8 | QVQLVESGGGLDQAGGSLRLSCAASGSIFRPYTMGWYRQAPGKERELVAAITGTCGSTRYADSVKGRFTISRDNAKNTVYLQMNSLNPEDNAVYYCAVYPPYRGRYDYRKYDSWGQGTQVTVSS | low polyreactivity
9 | QVQLVESGGGLVQAGGTHRLSCSASGFIFCKYAMGWYRQAPGKERELVAVITRSGSRTYYADSVKGRFTISRDNAKNTVYLQMNSLKPEDTAVYYCATENVYAYDYWGQGTQVTVSS | high polyreactivity
10 | QVQLVESGGGLVQAGGSLRLSCAASGLIFAYYTMGWYRQAPGKERELVAAITSGVRTYYADSVKGRFTISRDNAKNTVYLQMNSLKPEDTAVYYCAAGLSGSTQATIFWGYYYWGQGTQVTVSS | low polyreactivity
11 | QVQLVESGGGLVQAGGSLRLSCAASGFTFYLYTMGWYRQAPGKERELVATITSDGGTNYADSVKGRFTISRDNAKNTVYLQMNSLTPEDTAVYYCARDYLSPYAVDYWGQGTQVTVSS | low polyreactivity
12 | QVQLVESGGGLVQAGGSLRLSCAASGRTFYYAMGWYRQAPGKERELVAAITSSSSTYYADSVKGRFTISRDNAKNTVYLQLNSVKPEDTAVYYCNAADDPYGSPSYGYDYWGQGTQVTVSS | low polyreactivity
13 | QVQLVESGGGLGQAGGSLRLSSAASGFTFRRNAMGWYRQAPGKERELVAAINVRDGSTYYADSVKGRFTISRDNAKNTVYLQMNSLKPEDTAVYYCAAEFFQGYYWYYYWGQGTQVTVSS | high polyreactivity
14 | QVQLVESGGGLVQAGGILRLSCAASGSIFSPYVMGWYRQAPGKERELVAAISTGGSTYYADSVKGRFTISRDNAKNTVYLQMNSLKPEDTAVYYCATDGWKQSAYDYWGQGTQVTVSS | low polyreactivity
15 | QVQLVESGGGLVQAGGSLRLSSAASGSTFVYNYMGWYRQAPGKERELVAAIDSGGSTYYADSVKGRFTISRDNAKNTVYLQMNSLKPEDTAVYYCAASSDSYFGYHYYYWGQGTQVTVSS | low polyreactivity
16 | QVQLVESGGGLVQAGGCLRLSCAASGFIFSKNVMGWYRQAPGTERELVARITRSGGTTNYADSVKGRFTISRDNAKNTVYLQMNSLNPGDTAVYFCAARGYGYTSITWYDYWGQGTQVTVSS | high polyreactivity
17 | QVQLVESGGGIVQAGGSLRLSCAASGRTFSPYAKGWYRQAPGKERELVAAITLSGSSTYYADSVKGRFTISRDNAKNTVYLQMNRLKPEDTAVYYCAADYLYSWYRYVTYDYWGQGTQVTVSS | high polyreactivity
